The results in this text go back to US9284543B2, “Neutral active soluble truncated PH20 polypeptides and uses thereof” (Halozyme, Inc., priority 2008, dated 2016).

Sequences and labels used below:
B1: SPAM1-DTDA: C-terminally truncated human PH20, precursor 454 aa (SEQ ID NO:41), mature 419 aa (SEQ ID NO:93) (protein, listed as Homo sapiens)
chain 1: MGVLKFKHIFFRSFVKSSGVSQIVFTFLLIPCCLTLNFRAPPVIPNVPFLWAWNAPSEFCLGKFDEPLDMSLFSFIGSPRINATGQGVTIFYVDRLGYYPYIDSITGVTVNGGIPQKISLQDHLDKAKKDITFYMPVDNLGMAVIDWEEWRPTWARNWKPKDVYKNRSIELVQQQNVQLSLTEATEKAKQEFEKAGKDFLVETIKLGKLLRPNHLWGYYLFPDCYNHHYKKPGYNGSCFNVEIKRNDDLSWLWNESTALYPSIYLNTQQSPVAATLYVRNRVREAIRVSKIPDAKSPLPVFAYTRIVFTDQVLKFLSQDELVYTFGETVALGASGIVIWGTLSIMRSMKSCLLLDNYMETILNPYIINVTLAAKMCSQVLCQEQGVCIRKNWNSSDYLHLNPDNFAIQLEKGGKFTVRGKPTLEDLEQFSEKFYCSCYSTLSCKEKADVKDTDA
chain 2: LNFRAPPVIPNVPFLWAWNAPSEFCLGKFDEPLDMSLFSFIGSPRINATGQGVTIFYVDRLGYYPYIDSITGVTVNGGIPQKISLQDHLDKAKKDITFYMPVDNLGMAVIDWEEWRPTWARNWKPKDVYKNRSIELVQQQNVQLSLTEATEKAKQEFEKAGKDFLVETIKLGKLLRPNHLWGYYLFPDCYNHHYKKPGYNGSCFNVEIKRNDDLSWLWNESTALYPSIYLNTQQSPVAATLYVRNRVREAIRVSKIPDAKSPLPVFAYTRIVFTDQVLKFLSQDELVYTFGETVALGASGIVIWGTLSIMRSMKSCLLLDNYMETILNPYIINVTLAAKMCSQVLCQEQGVCIRKNWNSSDYLHLNPDNFAIQLEKGGKFTVRGKPTLEDLEQFSEKFYCSCYSTLSCKEKADVKDTDA
modifications: HuPH20 precursor 1-454; Mature HuPH20 36-454
B2: SPAM1-YNAS: C-terminally truncated human PH20, precursor 485 aa (SEQ ID NO:15), mature 450 aa (SEQ ID NO:67) (protein, listed as Homo sapiens)
chain: LNFRAPPVIPNVPFLWAWNAPSEFCLGKFDEPLDMSLFSFIGSPRINATGQGVTIFYVDRLGYYPYIDSITGVTVNGGIPQKISLQDHLDKAKKDITFYMPVDNLGMAVIDWEEWRPTWARNWKPKDVYKNRSIELVQQQNVQLSLTEATEKAKQEFEKAGKDFLVETIKLGKLLRPNHLWGYYLFPDCYNHHYKKPGYNGSCFNVEIKRNDDLSWLWNESTALYPSIYLNTQQSPVAATLYVRNRVREAIRVSKIPDAKSPLPVFAYTRIVFTDQVLKFLSQDELVYTFGETVALGASGIVIWGTLSIMRSMKSCLLLDNYMETILNPYIINVTLAAKMCSQVLCQEQGVCIRKNWNSSDYLHLNPDNFAIQLEKGGKFTVRGKPTLEDLEQFSEKFYCSCYSTLSCKEKADVKDTDAVDVCIADGVCIDAFLKPPMETEEPQIFYNAS
modifications: mature HuPH20 36-485
B3: SPAM1-ADVK: C-terminally truncated human PH20, precursor 450 aa (SEQ ID NO:43), mature 415 aa (SEQ ID NO:95) (protein, listed as Homo sapiens)
chain: MGVLKFKHIFFRSFVKSSGVSQIVFTFLLIPCCLTLNFRAPPVIPNVPFLWAWNAPSEFCLGKFDEPLDMSLFSFIGSPRINATGQGVTIFYVDRLGYYPYIDSITGVTVNGGIPQKISLQDHLDKAKKDITFYMPVDNLGMAVIDWEEWRPTWARNWKPKDVYKNRSIELVQQQNVQLSLTEATEKAKQEFEKAGKDFLVETIKLGKLLRPNHLWGYYLFPDCYNHHYKKPGYNGSCFNVEIKRNDDLSWLWNESTALYPSIYLNTQQSPVAATLYVRNRVREAIRVSKIPDAKSPLPVFAYTRIVFTDQVLKFLSQDELVYTFGETVALGASGIVIWGTLSIMRSMKSCLLLDNYMETILNPYIINVTLAAKMCSQVLCQEQGVCIRKNWNSSDYLHLNPDNFAIQLEKGGKFTVRGKPTLEDLEQFSEKFYCSCYSTLSCKEKADVK
modifications: HuPH20 precursor 1-450
B4: SPAM1-VKDT: C-terminally truncated human PH20, precursor 452 aa (SEQ ID NO:42), mature 417 aa (SEQ ID NO:94) (protein, listed as Homo sapiens)
chain 1: MGVLKFKHIFFRSFVKSSGVSQIVFTFLLIPCCLTLNFRAPPVIPNVPFLWAWNAPSEFCLGKFDEPLDMSLFSFIGSPRINATGQGVTIFYVDRLGYYPYIDSITGVTVNGGIPQKISLQDHLDKAKKDITFYMPVDNLGMAVIDWEEWRPTWARNWKPKDVYKNRSIELVQQQNVQLSLTEATEKAKQEFEKAGKDFLVETIKLGKLLRPNHLWGYYLFPDCYNHHYKKPGYNGSCFNVEIKRNDDLSWLWNESTALYPSIYLNTQQSPVAATLYVRNRVREAIRVSKIPDAKSPLPVFAYTRIVFTDQVLKFLSQDELVYTFGETVALGASGIVIWGTLSIMRSMKSCLLLDNYMETILNPYIINVTLAAKMCSQVLCQEQGVCIRKNWNSSDYLHLNPDNFAIQLEKGGKFTVRGKPTLEDLEQFSEKFYCSCYSTLSCKEKADVKDT
chain 2: LNFRAPPVIPNVPFLWAWNAPSEFCLGKFDEPLDMSLFSFIGSPRINATGQGVTIFYVDRLGYYPYIDSITGVTVNGGIPQKISLQDHLDKAKKDITFYMPVDNLGMAVIDWEEWRPTWARNWKPKDVYKNRSIELVQQQNVQLSLTEATEKAKQEFEKAGKDFLVETIKLGKLLRPNHLWGYYLFPDCYNHHYKKPGYNGSCFNVEIKRNDDLSWLWNESTALYPSIYLNTQQSPVAATLYVRNRVREAIRVSKIPDAKSPLPVFAYTRIVFTDQVLKFLSQDELVYTFGETVALGASGIVIWGTLSIMRSMKSCLLLDNYMETILNPYIINVTLAAKMCSQVLCQEQGVCIRKNWNSSDYLHLNPDNFAIQLEKGGKFTVRGKPTLEDLEQFSEKFYCSCYSTLSCKEKADVKDT
modifications: HuPH20 precursor 1-452; Mature HuPH20 36-452
B5: SPAM1-ASPS: C-terminally truncated human PH20, precursor 487 aa (SEQ ID NO:14), mature 452 aa (SEQ ID NO:66) (protein, listed as Homo sapiens)
chain: MGVLKFKHIFFRSFVKSSGVSQIVFTFLLIPCCLTLNFRAPPVIPNVPFLWAWNAPSEFCLGKFDEPLDMSLFSFIGSPRINATGQGVTIFYVDRLGYYPYIDSITGVTVNGGIPQKISLQDHLDKAKKDITFYMPVDNLGMAVIDWEEWRPTWARNWKPKDVYKNRSIELVQQQNVQLSLTEATEKAKQEFEKAGKDFLVETIKLGKLLRPNHLWGYYLFPDCYNHHYKKPGYNGSCFNVEIKRNDDLSWLWNESTALYPSIYLNTQQSPVAATLYVRNRVREAIRVSKIPDAKSPLPVFAYTRIVFTDQVLKFLSQDELVYTFGETVALGASGIVIWGTLSIMRSMKSCLLLDNYMETILNPYIINVTLAAKMCSQVLCQEQGVCIRKNWNSSDYLHLNPDNFAIQLEKGGKFTVRGKPTLEDLEQFSEKFYCSCYSTLSCKEKADVKDTDAVDVCIADGVCIDAFLKPPMETEEPQIFYNASPS
modifications: HuPH20 precursor 1-487

The first series concerns CHO-S cells. Kind of series: Western blot analysis of PH20 expression in media and cells after transient expression. It is filed as cell-based, Chinese Hamster. Particulars: media versus cells. Summed up:
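PH20 expression and solubility were judged by anti-PH20 Western blot of non-reduced media and cell fractions, with expression shown by a ~66 kDa band. Samples came from CHO-S cells transiently transfected (GeneJuice) with mutant PH20-HZ24 DNA and cultured 48-72 h. GPI-anchored mutants were cleaved with PI-PLC to release soluble protein.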
For the molecule B1, the “Expressed in Media” value was “YES”.
Turning to B2, the “Expressed in Media” value is “YES”.
Same read-out and setting: then B3, with “YES”.
With B4, the “Expressed in Media” value was “YES”.
On the same count and under the same terms, then B5, with “YES”.

Tested on in the next series: not listed separately
Kind of series: Microtiter hyaluronidase activity assay with biotinylated-hyaluronic acid. It is filed as biochemical. Particulars: Table 6; 72 hour post transfection supernatant; pH 5.5.
As to B1, the “pH 5.5 Activity” value is listed as 0.054 Units/ml.
Same read-out and setting: then B2, with 1.748 Units/ml.
Regarding B3, the “pH 5.5 Activity” value came to 0.0405 Units/ml.
Still for that read-out and setting: then B4, with 0.0225 Units/ml; and B5, with 0.9225 Units/ml.

The same series, now with this note: Table 6; 72 hour post transfection supernatant; pH 7.4.
Turning to B1, the “pH 7.4 Activity” value was 0 Units/ml.
Still for that read-out and setting: then B2, with 1.8765 Units/ml; and B3, with 0.063 Units/ml; and B4, with 0.054 Units/ml.
Still for that read-out and setting: then B5, with 1.017 Units/ml.

The series is the same for the next values; noted with them: Table 6A; 72 hour post transfection supernatant; pH 5.5.
B5: the “pH 5.5 Activity” value is reported as 1.580 Units/ml.

Still in this series, the particulars now being: Table 6A; 72 hour post transfection supernatant; pH 7.4.
Regarding B5, the “pH 7.4 Activity” value amounted to 1.134 Units/ml.
